The text below walks through data of US20120213794A1 (published 2012).

Changes are numbered by the printed parent chain.

Broadly, the Kd is the constant that tells how readily two partners part at equilibrium. A high value points to weaker binding. For orientation: koff means a measure of how fast the partners let go of each other. Broadly, the kon is the second-order rate constant of association. A higher kon goes with faster complex formation.

B1: AX213 Fab (Fab, V domains shown)
VH: QVQLLESGGGLVQPGGSLRLSCKASGYTFSRYGINWVRQAPGKGLEWIGRIDPGNGGTRYNEKFKGKATISRDNSKNTLYLQMNSLRAEDTAVYYCARANDGYSFDYWGQGTLVTVSS
VL: EIVLTQSPATLSLSPGERATITCRASQYVGSYLNWYQQKPGQAPRLLIYDASNRATGIPARFSGSGSGTDFTLTISSLEPEDFAVYYCQVWDSSPPVVFGGGTKVEIKR
B2: AX210 Fab (Fab, V domains shown)
VH: B1 VH with R31S, G33S, N35Y, R50W, E62Q, K65Q, G66S, N100R, D101V, F105L
VL: EIVLTQSPATLSLSPGERATITCRASQYVGSYLNWYQQKPGQAPRLLIYDASNRATGIPARFSGSGSGTDFTLTISSLEPEDFAVYYCQVWDSSPPVVFGGGTKVEIK
notes: Tested as purified Fab
B3: AX139 Fab (Fab, V domains shown)
VH: EVQLLESGGGLVQPGGSLRLSCKASGYTFSSYGMYWVRQAPGKGLEWIGWIDPGSGGTKYNEKFKGKATISRDNSKNTLYLQMNSLRAEDTAVYYCARERYGYYFDYWGQGTLVTVSS
VL: B2 VL with S52A
notes: Tested as purified Fab
B4: AX114 Fab (Fab, V domains shown)
VH: B3 VH
VL: B2 VL with S31T, V98A
notes: Tested as purified Fab from E. coli TG1
B5: AX137 Fab (Fab, V domains shown)
VH: B3 VH
VL: B2 VL with V29I, V90A
notes: Tested as purified Fab
B6: AX212 Fab (Fab, V domains shown)
VH: QVQLLESGGGLVQPGGSLRLSCKASGYTFSSYSFSWVRQAPGKGLEWIGYIDPGSGGTKYNQKFQGKATISRDNSKNTLYLQMNSLRAEDTAVYYCARQRVGYSLDYWGQGTLVTVSS
VL: B2 VL
notes: Tested as purified Fab
B7: AX211 Fab (Fab, V domains shown)
VH: B1 VH with Y32Q, I34F, N35T, R50W, A99Y, N100R, D101V, F105L
VL: B2 VL
notes: Tested as purified Fab
B8: AX213 IgG (antibody, V domains shown)
VH: B1 VH with Q1E
VL: B1 VL
B9: AX114 IgG (antibody, V domains shown)
VH: B3 VH
VL: B2 VL with S31T, V98A
notes: Purified IgG; also called AX114-IgG2
B10: AX210 IgG (antibody, V domains shown)
VH: B6 VH with F34I, S35Y, Y50W, S55N, K59R, G66S, Q99A
VL: B2 VL
notes: Purified IgG
B11: AX137 IgG (antibody, V domains shown)
VH: B3 VH
VL: B2 VL with V29I, V90A
notes: Purified IgG
B12: AX212 IgG (antibody, V domains shown)
VH: B6 VH
VL: B2 VL
notes: Purified IgG
B13: AX211 IgG (antibody, V domains shown)
VH: B1 VH with Y32Q, I34F, N35T, R50W, A99Y, N100R, D101V, F105L
VL: B2 VL
notes: Purified IgG
B14: AX213 Fab (Fab, V domains shown)
VH: B1 VH
VL: B1 VL
B15: AX211 Fab (Fab, V domains shown)
VH: B1 VH with Y32Q, I34F, N35T, R50W, A99Y, N100R, D101V, F105L
VL: B2 VL
B16: AX210 Fab (Fab, V domains shown)
VH: B6 VH with F34I, S35Y, Y50W, S55N, K59R, G66S, Q99A
VL: B2 VL
B17: AX212 Fab (Fab, V domains shown)
VH: B6 VH
VL: B2 VL
B18: AX213 IgG2 (antibody, V domains shown)
VH: B1 VH with Q1E
VL: B1 VL
B19: AX212 IgG2 (antibody, V domains shown)
VH: B6 VH
VL: B2 VL
B20: AX114 IgG2 (antibody, V domains shown)
VH: B3 VH
VL: B2 VL with S31T, V98A

murine PCSK9, sequence (Q80W65 35-694 limits assumed): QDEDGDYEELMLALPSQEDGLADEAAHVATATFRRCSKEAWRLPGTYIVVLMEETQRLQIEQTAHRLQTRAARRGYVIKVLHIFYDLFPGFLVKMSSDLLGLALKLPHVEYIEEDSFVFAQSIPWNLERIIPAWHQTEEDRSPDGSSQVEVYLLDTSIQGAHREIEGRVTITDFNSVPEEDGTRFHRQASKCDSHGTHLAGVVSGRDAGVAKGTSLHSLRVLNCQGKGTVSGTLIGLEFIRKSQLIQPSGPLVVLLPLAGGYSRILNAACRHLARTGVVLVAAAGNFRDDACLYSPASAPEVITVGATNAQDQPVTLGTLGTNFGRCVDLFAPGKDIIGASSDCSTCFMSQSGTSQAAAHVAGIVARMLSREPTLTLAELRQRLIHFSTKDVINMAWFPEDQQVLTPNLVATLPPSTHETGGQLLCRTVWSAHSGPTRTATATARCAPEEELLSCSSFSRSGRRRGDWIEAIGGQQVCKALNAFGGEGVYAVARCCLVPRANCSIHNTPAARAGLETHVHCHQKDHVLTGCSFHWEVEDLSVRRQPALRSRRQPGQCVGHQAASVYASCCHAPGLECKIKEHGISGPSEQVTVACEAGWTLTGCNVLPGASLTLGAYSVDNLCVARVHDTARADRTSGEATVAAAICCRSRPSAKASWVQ

The first assay addresses T1, human PCSK9 (human, UniProt Q8NBP7 31-692).
T1 construct: also called hPCSK9; proprotein convertase subtilisin-kexin type 9
Description: SPR (Biacore), Fab captured by anti-Fab IgG, 1:1 fit. The method, then: Biacore assay was developed. First, goat anti-Fab IgGs were immobilized onto CM5 chip by amine coupling as described above. The anti-Fab IgGs were diluted to 200 μg/ml in pH 5/10 mM Acetate solution, and injected onto the NHS/EDC activated surface to achieve an immobilization level of ˜10,000 RU, followed with surface inactivation by injection of Ethanolamine. Then Fab samples at concentration of 2 μg/ml in HBS-P running buffer were injected for 3 minutes at flow speed of 20 ul/min, followed with K-injection (3 minutes injection for association and 6 minutes for dissociation) of PCSK9 at concentration of 10 to 100 nM. The sensor chip surface was regenerated by 30 second injection of 100 mM phosphoric acid. The binding sensorgrams were fitted with 1:1 Langmuir binding model to determine the binding affinity.
Background: In SPR one partner is held on a chip, and binding of the other changes the refractive index at the surface.
T1 sequence (Q8NBP7 31-692 limits assumed): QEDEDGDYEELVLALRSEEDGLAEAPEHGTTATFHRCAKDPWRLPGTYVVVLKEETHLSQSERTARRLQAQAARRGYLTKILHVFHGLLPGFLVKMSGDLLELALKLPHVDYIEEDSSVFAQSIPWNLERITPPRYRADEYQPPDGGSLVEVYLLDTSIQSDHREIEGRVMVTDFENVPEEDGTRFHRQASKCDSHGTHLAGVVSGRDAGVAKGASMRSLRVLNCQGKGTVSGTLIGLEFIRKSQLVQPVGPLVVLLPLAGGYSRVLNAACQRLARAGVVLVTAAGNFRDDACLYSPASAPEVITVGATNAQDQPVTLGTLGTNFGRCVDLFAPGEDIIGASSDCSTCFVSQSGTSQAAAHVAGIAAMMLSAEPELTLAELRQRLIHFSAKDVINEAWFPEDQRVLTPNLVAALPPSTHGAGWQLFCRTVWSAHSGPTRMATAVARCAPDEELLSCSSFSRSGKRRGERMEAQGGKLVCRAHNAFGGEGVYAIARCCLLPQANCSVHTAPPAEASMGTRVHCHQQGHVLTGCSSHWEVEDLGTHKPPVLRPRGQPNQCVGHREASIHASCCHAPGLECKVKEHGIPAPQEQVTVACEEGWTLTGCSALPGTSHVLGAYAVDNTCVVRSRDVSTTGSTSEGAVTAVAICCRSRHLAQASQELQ
On to B1, for which the Kd came to 1.37 nM, the koff came out at 0.000329 s⁻¹ and the kon was 243000 M⁻¹ s⁻¹.
Regarding B2, the dissociation constant (Kd) came out at 1.67 nM, the dissociation rate constant (koff) is 0.000287 s⁻¹ and the on-rate (kon) was found to be 172000 M⁻¹ s⁻¹.
The molecule B3 displayed an equilibrium dissociation constant (Kd) of 13.2 nM, a dissociation rate constant (koff) of 0.00118 s⁻¹ and a kon of 89700 M⁻¹ s⁻¹.
Consider B4, for which binding was characterised by a dissociation constant (Kd) of 48.5 nM, the koff amounted to 0.00348 s⁻¹ and the on-rate (kon) was 71700 M⁻¹ s⁻¹.
In the case of B5, the dissociation constant Kd amounted to 19.5 nM, the dissociation rate constant (koff) was 0.00208 s⁻¹ and the kon is 107000 M⁻¹ s⁻¹.
In turn, B6 showed a dissociation constant Kd of 1.47 nM, an off-rate constant (koff) of 0.000233 s⁻¹ and an on-rate constant (kon) of 159000 M⁻¹ s⁻¹.
With B7, the affinity, expressed as Kd, was 1.67 nM; the koff was found to be 0.000329 s⁻¹; the kon stood at 197000 M⁻¹ s⁻¹.

Another assay deals with T2, human PCSK9 (human, UniProt Q8NBP7 31-692).
T2 construct: Secreted PCSK9 is autocleaved into prodomain and mature chain, and a His-tag is named for the HEK293 constructs; also called hPCSK9; proprotein convertase subtilisin-kexin type 9
The assay can be described thus: SPR (Biacore), IgG captured by anti-human IgG, PCSK9 injected at 3.75-60 nM. The method, then:
The affinities of those IgG molecules were also measured by Biacore assay. Briefly, anti-human IgG monoclonal antibody form Human Antibody Capture Kit provided by Biacore was immobilized on CM5 chips at level of 8000 to 10000 RU. The IgG samples at concentration of ˜0.4 μg/ml was injected onto a sensor chip for 2 minutes at a flow rate of 20 μl/min, then PCSK9 proteins at 5 concentrations (3.75 to 60 nM) were injected onto an IgG captured flow cell for binding kinetic analysis. After each round injection, the sensor chip surface was regenerated by 30 second injection of 3M Magnesium Chloride.
T2 sequence (Q8NBP7 31-692 limits assumed): as above
The molecule B8 returned an equilibrium dissociation constant (Kd) of 2.07 nM, a koff of 0.00073 s⁻¹ and an association rate constant (kon) of 353000 M⁻¹ s⁻¹.
The molecule B9 yielded a Kd of 24 nM, a koff of 0.00361 s⁻¹ and a kon of 151000 M⁻¹ s⁻¹.
In turn, B10 displayed a Kd of 2.64 nM, an off-rate constant (koff) of 0.000621 s⁻¹ and an on-rate constant (kon) of 235000 M⁻¹ s⁻¹.
In the same order, the values of B11 are 9.98 nM, 0.00332 s⁻¹ and 333000 M⁻¹ s⁻¹.
Consider B12, for which binding was put at a Kd of 2.12 nM, the koff was determined as 0.000324 s⁻¹ and the on-rate (kon) amounted to 153000 M⁻¹ s⁻¹.
Consider B13, for which the dissociation constant (Kd) was determined as 1.63 nM, the koff was 0.000589 s⁻¹ and the kon was determined as 361000 M⁻¹ s⁻¹.

Another assay deals with T3, human PCSK9 (human, UniProt Q8NBP7 31-692). The assay can be described thus: cell-based or functional assay.
T3 sequence (Q8NBP7 31-692 limits assumed): as above
Consider B14, for which the “Fab IC50 (nM), inhibition of PCSK9 on LDL uptake” value (from here on “Fab IC50 (nM), inhibition”) is 14.7 nM.
For the molecule B15, the “Fab IC50 (nM), inhibition” value stood at 12.6 nM.
As for B16, the “Fab IC50 (nM), inhibition” value was 26.8 nM.
On to B17, for which the “Fab IC50 (nM), inhibition” value was determined as 13.8 nM.

The next assay deals with T3, human PCSK9. The assay can be described thus: cell-based or functional assay. The source holds these as a separate data set.
B18: the “IgG2 IC50 (nM), inhibition of PCSK9 (LDL uptake assay)” value (“IgG2 IC50 (nM), inhibition of PCSK9” below) amounted to 11.1 nM.
As to B19, the “IgG2 IC50 (nM), inhibition of PCSK9” value turned out to be 9.5 nM.
Turning to B20, the “IgG2 IC50 (nM), inhibition of PCSK9” value was 36.6 nM.

For another assay, the target named is rhesus PCSK9 (rhesus, UniProt A8T666 31-692, limits assumed). Description: cell-based or functional assay.
rhesus PCSK9, sequence (A8T666 31-692 limits assumed): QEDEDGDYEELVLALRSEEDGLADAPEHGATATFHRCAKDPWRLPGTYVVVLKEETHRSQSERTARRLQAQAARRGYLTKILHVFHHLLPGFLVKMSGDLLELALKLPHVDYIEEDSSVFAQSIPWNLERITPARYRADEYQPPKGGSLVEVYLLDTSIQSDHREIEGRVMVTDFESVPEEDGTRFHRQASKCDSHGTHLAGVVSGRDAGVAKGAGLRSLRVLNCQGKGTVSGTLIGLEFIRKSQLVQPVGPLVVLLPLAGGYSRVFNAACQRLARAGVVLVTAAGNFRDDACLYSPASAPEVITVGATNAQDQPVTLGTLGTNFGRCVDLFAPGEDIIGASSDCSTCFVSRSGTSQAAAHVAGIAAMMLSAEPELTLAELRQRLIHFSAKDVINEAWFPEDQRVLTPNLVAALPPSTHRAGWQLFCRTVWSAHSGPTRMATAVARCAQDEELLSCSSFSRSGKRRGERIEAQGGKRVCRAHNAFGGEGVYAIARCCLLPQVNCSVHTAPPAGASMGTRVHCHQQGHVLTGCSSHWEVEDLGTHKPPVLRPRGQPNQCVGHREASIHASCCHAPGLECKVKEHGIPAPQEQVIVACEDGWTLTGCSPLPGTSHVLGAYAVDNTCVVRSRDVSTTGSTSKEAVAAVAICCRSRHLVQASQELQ
Turning to B18, the “IgG2 IC50 (nM), inhibition of PCSK9” value is 10.2 nM.
In the case of B19, the “IgG2 IC50 (nM), inhibition of PCSK9” value is 4.7 nM.
With B20, the “IgG2 IC50 (nM), inhibition of PCSK9” value was 14.4 nM.

Another assay addresses murine PCSK9 (mouse, UniProt Q80W65 35-694, limits assumed). Description: cell-based or functional assay.
Regarding B18, the “IgG2 IC50 (nM), inhibition of PCSK9” value was found to be 7 nM.
On the same count and under the same terms, with B19 the figure was 7.3 nM; with B20, 27.4 nM.
